# Measured values published in the RNAGym collection of RNA variant scans (doi:10.1073/pnas.2313332121).
# B1: TPR t1 (parent)
# chain: GACCAAUCUGCCCUCAGAGCUCGAGAACAUCUUCGGAUGCAGAGGAGGCAGGCUUCGGUGGCGCGAUAGCGCCAACGUCCUCAACCUCCAAUGCAUCCCACCACAUGAUGAUGCCUGAAGAGCCUUGGUUUUUUG
# Variants of: B1
# Test: polymerase ribozyme fitness, log enrichment relative to wild type (log ratio); higher = more active; in vitro selection for triplet polymerase activity
# In short: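 Fitness measures genotype enrichment against wild-type enrichment on a logarithmic scale, with inverse-variance-weighted averaging of replicates. The logarithm is base 2, and genotypes were kept only with ≥10 input reads and ≥1 read per output in Illumina sequencing. The sequenced libraries came from one triplicate in vitro selection round, including frozen incubation at −7 °C, of PCR-built, transcribed mutant libraries of each subunit of a heterodimeric triplet polymerase ribozyme.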
row,Variant,polymerase ribozyme fitness (log ratio)
1,C56U C85A,-1.96
2,C56U C73G A90U,-3.53
3,C56G G135C,-0.404
4,G57A G58A,-0.357
5,C56U U96A,-1.14
6,C56U U96G,-0.658
7,C56G U109A,-4.28
8,G57A C82A C102A,-4.09
9,C56U C86U C89U U116G,-2.41
10,C56U G110U U116G G117U,-6.29
11,C56U C114G,-2.54
12,C56U C114A,-1.27
13,C56U U106G U116C,-3.48
14,C56U C101A,-1.79
15,C56U C101U,0.177
16,C56U C89U U116C G127A G135U,-3.61
17,C56G G120A,0.238
18,C56G G120U,-0.0956
19,C56U A90U U92A,-1.45
20,C56U G110A,-0.719
21,G57A A66U C115G,-4.64
22,C56U U78C A111C G113U,-4.24
23,C56U C86U,-0.265
24,G57A C62U,-0.892

row,Variant,polymerase ribozyme fitness (log ratio)
1,G57A C98G U112A,-6.12
2,C56U G57U,-0.86
3,G57A G58A U81A U106C,-2.54
4,C56U G65U C114U,-6.33
5,C56U G120C G122U,1.43
6,C56U C80G,-5.25
7,C56U G117C,-3.64
8,C56G U78G A121C,1.64
9,C56U C73G C115U,-3.6
10,C56U C115A,0.248
11,C56G U59C,-1.57
12,C56U U106C G120A,0.203
13,C56G U130C,-1.02
14,C56U C73U U109A,-4.36
15,C56U G120U C124A,1.41
16,G57A G60U C88U C94U,-1.24
17,C56U U87A C123G,1.81
18,C56U C64U A74G,-3.32
19,C56U G135U,-1.18
20,G57A A103C G120C C124A,-4.81
21,G57A A90C C104A G113C G117C,-6.59
22,C56U C94A,-0.478
23,C56U G71A C72G G77C C82G A111U,-6.46
24,C56U C73U A105U,-2.37

row,Variant,polymerase ribozyme fitness (log ratio)
1,C56U U67C,-4.67
2,C56U U67A,-5.79
3,C56U G69U,-1.78
4,C56U G113U C123G,-2.01
5,C56G U96G G120U,-1.41
6,G57A G63U U78C A95C C115A,-2.54
7,C56U G61U C104U U112G G117U C124U,-5.56
8,G57A C82A,-0.596
9,G57A C73G G127C,-2.37
10,C56U G69U U112G A119U,-3.07
11,C56U A100C U112C,0.715
12,C56U C123U,1.04
13,C56U C123A,0.593
14,C56U C123G,1.1
15,C56U A84G A95C G127U,-2.62
16,G57A C89U U130C,-0.888
17,C56U U59A,-0.76
18,C56U C124U,1.6
19,C56U A90G C97U,-0.119
20,C56U U81G U112G C124G,-0.448
21,C56U C101G A118C C124G,-2.41
22,C56U U129G,-0.409
23,C56U U109A,-5.25
24,C56U C64A C115U,-7.12

row,Variant,polymerase ribozyme fitness (log ratio)
1,C56U C79A G113U,-4.28
2,G57A G58A A83U,-0.302
3,C56U C80A C97U,-2.71
4,C56U U87C C94U A95C G113A,-2.65
5,G57A C94G G113A,-3.76
6,C56U G77U C101A,-1.15
7,C56U C79A C99U C102A G120A G127U,-5.84
8,C56U C70G C115A G122A,-4.59
9,C56U C70A,-3.82
10,C56U C79U G113C,-2.44
11,C56U C72G C88A,-3.53
12,C56U C114G U131A,-2.06
13,C56U C62A A75U U81C C114A U125G,-4.69
14,C56U G69A U78G A83C,-4.4
15,C56G U78A U116G,-3.2
16,C56U G127U,-0.508
17,C56U C72U C79U C101A,-1.28
18,C56G U81G,-2.07
19,C56U C72G A83G C123U,-1.18
20,C56U A68U C70U U92C C104U C124U,-7.15
21,C56U A95C C98U,-1.83
22,C56U U78C U106A G120A,0.24
23,C56U C72A C89A,-2.41
24,G57A C73U G110A,-2.06

row,Variant,polymerase ribozyme fitness (log ratio)
1,C56U U106G U112G A118C U133G,-0.872
2,C56U C79U U92C U112A,-0.412
3,C56U G120U,0.743
4,C56U G120C,0.793
5,C56U G120A,0.719
6,C56U C72A G122A,-1.69
7,C56U C64A,-7.74
8,C56U A74C A75U C124U,0.971
9,C56U U112C,0.364
10,C56U U112A,1.66
11,C56U G122U,-0.129
12,C56U A91C,-1.17
13,G57A C80U,-1.38
14,C56U C102A U129G,-3.35
15,C56U C62U C123A,0.0354
16,C56U G69C C114G,-6.88
17,C56U C94U G120C A121U G127U,0.202
18,C56G U78A U81A G113C,-3.06
19,C56U C72U U116C G117U G120U,-3.95
20,C56U G60A C101U,-5.48
21,C56U G113U,-2.72
22,C56U G113C,-1.97
23,C56U C85A C88A,-2.83
24,C56U C104G C115A,-4.93

row,Variant,polymerase ribozyme fitness (log ratio)
1,C56U C79A,-0.918
2,C56U G69A G113A,-5.38
3,C56U U78A,-0.32
4,C56U U87C,0.555
5,C56U U112A U134A,2.39
6,G57A A84U,-0.813
7,C56U G63C C94U,-5.48
8,C56U C72A C88U,-1.31
9,C56U U116C,-0.494
10,C56U G77A G117U G120A C124A,-1.34
11,C56U U116A G117C,-1.64
12,C56U U96C C114G,-3.1
13,C56U C72U G120C G127A U134C,-1.5
14,C56U A121C,1.68
15,C56U A121G,1.94
16,C56U C70U U132C,-0.908
17,C56U A83C,1.56
18,G57A A119G,0.755
19,C56U C62U,-0.378
20,C56U U112C A118C,1.53
21,G57A G58C G63A C89A,-6.16
22,C56U U125C,-2.74
23,C56U C73U C88G,-1.95
24,C56U G77A C124U,1.2

row,Variant,polymerase ribozyme fitness (log ratio)
1,C56U A74G G110A U112A,-2.67
2,C56G U87G,-0.352
3,C56G U87A,-1.33
4,G57A G61A,-0.154
5,C56U U132C,-0.156
6,C56U G60A A68C C70U,-6.82
7,C56U A74G U81G G117U A118U,-4.51
8,C56U C101A C114A,-2.61
9,C56U U116G C123U,-1.77
10,C56U G61C C97U A103U C123G,-7.29
11,C56U C88A,-0.497
12,C56U C89G,-1.27
13,G57A C79U C102G G107U C115G C124U U129G,-5.93
14,C56U A119U,-0.819
15,C56U C72A G120A,-0.183
16,G57A C124A,0.954
17,G57A C97U,-1.83
18,C56U G57U A90C G110U,-3.95
19,G57A C88U U112G,-2.79
20,C56U U126G,-1.91
21,C56U U126A,-1.39
22,C56U G60U,-3.21
23,C56U G60A,-3.37
